The experiment has as its target endogenously expressed Gαi (human (endogenous in HEK293)) (UniProt P63096). As to the kind of experiment: linear dichroism.
Sequence of UniProt P63096 (P63096 whole entry): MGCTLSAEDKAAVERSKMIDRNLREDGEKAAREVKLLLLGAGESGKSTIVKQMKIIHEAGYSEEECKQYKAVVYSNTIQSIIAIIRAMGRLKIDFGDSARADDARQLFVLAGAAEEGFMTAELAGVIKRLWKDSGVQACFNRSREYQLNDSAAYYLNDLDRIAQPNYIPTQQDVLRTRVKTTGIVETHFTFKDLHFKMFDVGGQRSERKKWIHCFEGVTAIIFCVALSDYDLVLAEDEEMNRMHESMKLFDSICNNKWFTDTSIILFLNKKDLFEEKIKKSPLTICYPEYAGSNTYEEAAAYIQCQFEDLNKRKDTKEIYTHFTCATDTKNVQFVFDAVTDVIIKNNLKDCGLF

The substance KB1753-cpmTurq2-HRas registered a percent of the FLIP molecules bound of 15%. To KB1753-eGFP-HRas belongs 15%.

The record behind these values is PMC12810643.
